± gives the standard deviation of the averaged measurements.
Assays:
MCF7 = assay: percentage of EdU-negative (G0-arrested) nuclei per well, 72 h; higher = more G0 arrest; details: reference: sequence is the full UniProt precursor, the tested protein was the secreted form or ectodomain
hTERT-HMEC = assay: as above; details: reference: sequence is the full UniProt precursor, the tested protein was the secreted form or ectodomain
[1] = protein concentration 0.00828571 µM
[2] = protein concentration 0.0828571 µM
[3] = protein concentration 0.0225 µM
[4] = protein concentration 0.02075 µM
[5] = protein concentration 0.2075 µM
[6] = protein concentration 0.0239275 µM
[7] = protein concentration 0.239275 µM
[8] = protein concentration 0.0245 µM
[9] = protein concentration 0.0199575 µM
[10] = protein concentration 0.03125 µM
[11] = protein concentration 0.199575 µM
[12] = protein concentration 0.3125 µM
[13] = protein concentration 0.0194286 µM
[14] = protein concentration 0.194286 µM
[15] = protein concentration 0.03025 µM
[16] = protein concentration 0.3025 µM
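Note: secreted proteins added to cultured cells, EdU pulse at the end, nuclei found by Hoechst imaging, EdU status from nuclear versus surrounding ring intensity ratio, PBS as neutral control.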

Sequence: MGTATRRKPHLLLVAAVALVSSSAWSSALGSQTTFGPVFEDQPLSVLFPEESTEEQVLLACRARASPPATYRWKMNGTEMKLEPGSRHQLVGGNLVIMNPTKAQDAGVYQCLASNPVGTVVSREAILRFGFLQEFSKEERDPVKAHEGWGVMLPCNPPAHYPGLSYRWLLNEFPNFIPTDGRHFVSQTTGNLYIARTNASDLGNYSCLATSHMDFSTKSVFSKFAQLNLAAEDTRLFAPSIKARFPAETYALVGQQVTLECFAFGNPVPRIKWRKVDGSLSPQWTTAEPTLQIPSVSFEDEGTYECEAENSKGRDTVQGRIIVQAQPEWLKVISDTEADIGSNLRWGCAAAGKPRPTVRWLRNGEPLASQNRVEVLAGDLRFSKLSLEDSGMYQCVAENKHGTIYASAELAVQALAPDFRLNPVRRLIPAARGGEILIPCQPRAAPKAVVLWSKGTEILVNSSRVTVTPDGTLIIRNISRSDEGKYTCFAENFMGKANSTGILSVRDATKITLAPSSADINLGDNLTLQCHASHDPTMDLTFTWTLDDFPIDFDKPGGHYRRTNVKETIGDLTILNAQLRHGGKYTCMAQTVVDSASKEATVLVRGPPGPPGGVVVRDIGDTTIQLSWSRGFDNHSPIAKYTLQARTPPAGKWKQVRTNPANIEGNAETAQVLGLTPWMDYEFRVIASNILGTGEPSGPSSKIRTREAAPSVAPSGLSGGGGAPGELIVNWTPMSREYQNGDGFGYLLSFRRQGSTHWQTARVPGADAQYFVYSNESVRPYTPFEVKIRSYNRRGDGPESLTALVYSAEEEPRVAPTKVWAKGVSSSEMNVTWEPVQQDMNGILLGYEIRYWKAGDKEAAADRVRTAGLDTSARVSGLHPNTKYHVTVRAYNRAGTGPASPSANATTMKPPPRRPPGNISWTFSSSSLSIKWDPVVPFRNESAVTGYKMLYQNDLHLTPTLHLTGKNWIEIPVPEDIGHALVQIRTTGPGGDGIPAEVHIVRNGGTSMMVENMAVRPAPHPGTVISHSVAMLILIGSLEL
- percentage of EdU-negative (MCF7; [1]): 24.5 ± 3%
- percentage of EdU-negative (MCF7; [2]): 25.1 ± 0.57%
- percentage of EdU-negative (hTERT-HMEC; [1]): 5.61 ± 0.96%
- percentage of EdU-negative (hTERT-HMEC; [2]): 5.98 ± 2%

Sequence: MGTKAQVERKLLCLFILAILLCSLALGSVTVHSSEPEVRIPENNPVKLSCAYSGFSSPRVEWKFDQGDTTRLVCYNNKITASYEDRVTFLPTGITFKSVTREDTGTYTCMVSEEGGNSYGEVKVKLIVLVPPSKPTVNIPSSATIGNRAVLTCSEQDGSPPSEYTWFKDGIVMPTNPKSTRAFSNSSYVLNPTTGELVFDPLSASDTGEYSCEARNGYGTPMTSNAVRMEAVERNVGVIVAAVLVTLILLGILVFGIWFAYSRGHFDRTKKGTSSKKVIYSQPSARSEGEFKQTSSFLV [Q9Y624]
- percentage of EdU-negative (MCF7; [3]): 24.4 ± 0.49%
- percentage of EdU-negative (MCF7; protein concentration 0.225 µM): 25.6 ± 5.5%
- percentage of EdU-negative (hTERT-HMEC; [3]): 4.79 ± 0.22%
- percentage of EdU-negative (hTERT-HMEC; protein concentration 0.225 µM): 5.1 ± 1.2%

Sequence: MGTLPWLLAFFILGLQAWDTPTIVSRKEWGARPLACRALLTLPVAYIITDQLPGMQCQQQSVCSQMLRGLQSHSVYTIGWCDVAYNFLVGDDGRVYEGVGWNIQGLHTQGYNNISLGIAFFGNKIGSSPSPAALSAAEGLISYAIQKGHLSPRYIQPLLLKEETCLDPQHPVMPRKVCPNIIKRSAWEARETHCPKMNLPAKYVIIIHTAGTSCTVSTDCQTVVRNIQSFHMDTRNFCDIGYHFLVGQDGGVYEGVGWHIQGSHTYGFNDIALGIAFIGYFVEKPPNAAALEAAQDLIQCAVVEGYLTPNYLLMGHSDVVNILSPGQALYNIISTWPHFKH [Q96LB9]
- percentage of EdU-negative (MCF7; [4]): 25.5 ± 4.8%
- percentage of EdU-negative (MCF7; [5]): 26.6 ± 2.1%
- percentage of EdU-negative (hTERT-HMEC; [4]): 5.52 ± 0.69%
- percentage of EdU-negative (hTERT-HMEC; [5]): 5.51 ± 0.12%

Sequence: MGTLSAPPCTQRIKWKGLLLTASLLNFWNLPTTAQVTIEAEPTKVSEGKDVLLLVHNLPQNLTGYIWYKGQMRDLYHYITSYVVDGEIIIYGPAYSGRETAYSNASLLIQNVTREDAGSYTLHIIKGDDGTRGVTGRFTFTLHLETPKPSISSSNLNPRETMEAVSLTCDPETPDASYLWWMNGQSLPMTHSLKLSETNRTLFLLGVTKYTAGPYECEIRNPVSASRSDPVTLNLLPKLPKPYITINNLNPRENKDVLNFTCEPKSENYTYIWWLNGQSLPVSPRVKRPIENRILILPSVTRNETGPYQCEIRDRYGGIRSDPVTLNVLYGPDLPRIYPSFTYYRSGEVLYLSCSADSNPPAQYSWTINEKFQLPGQKLFIRHITTKHSGLYVCSVRNSATGKESSKSMTVEVSDWTVP
- percentage of EdU-negative (MCF7; [6]): 25 ± 2.2%
- percentage of EdU-negative (MCF7; [7]): 25.7 ± 1.8%
- percentage of EdU-negative (hTERT-HMEC; [6]): 5.16 ± 0.84%
- percentage of EdU-negative (hTERT-HMEC; [7]): 7.5 ± 0.26%

Sequence: MGTPRIQHLLILLVLGASLLTSGLELYCQKGLSMTVEADPANMFNWTTEEVETCDKGALCQETILIIKAGTETAILATKGCIPEGEEAITIVQHSSPPGLIVTSYSNYCEDSFCNDKDSLSQFWEFSETTASTVSTTLHCPTCVALGTCFSAPSLPCPNGTTRCYQGKLEITGGGIESSVEVKGCTAMIGCRLMSGILAVGPMFVREACPHQLLTQPRKTENGATCLPIPVWGLQLLLPLLLPSFIHFS [Q9BY14]
- percentage of EdU-negative (MCF7; [8]): 25.5 ± 2%
- percentage of EdU-negative (MCF7; protein concentration 0.245 µM): 26.5 ± 0.59%
- percentage of EdU-negative (hTERT-HMEC; [8]): 5.14 ± 0.066%
- percentage of EdU-negative (hTERT-HMEC; protein concentration 0.245 µM): 5.33 ± 0.8%

Sequence: MGTSLLCWMALCLLGADHADTGVSQNPRHKITKRGQNVTFRCDPISEHNRLYWYRQTLGQGPEFLTYFQNEAQLEKSRLLSDRFSAERPKGSFSTLEIQRTEQGDSAMYLCASSL
- percentage of EdU-negative (MCF7; [3]): 27 ± 1.4%
- percentage of EdU-negative (MCF7; protein concentration 0.225 µM): 26.8 ± 1.4%
- percentage of EdU-negative (hTERT-HMEC; [3]): 5.02 ± 0.49%
- percentage of EdU-negative (hTERT-HMEC; protein concentration 0.225 µM): 6.26 ± 1.2%

Sequence: MGTSPSSSTALASCSRIARRATATMIAGSLLLLGFLSTTTAQPEQKASNLIGTYRHVDRATGQVLTCDKCPAGTYVSEHCTNTSLRVCSSCPVGTFTRHENGIEKCHDCSQPCPWPMIEKLPCAALTDRECTCPPGMFQSNATCAPHTVCPVGWGVRKKGTETEDVRCKQCARGTFSDVPSSVMKCKAYTDCLSQNLVVIKPGTKETDNVCGTLPSFSSSTSPSPGTAIFPRPEHMETHEVPSSTYVPKGMNSTESNSSASVRPKVLSSIQEGTVPDNTSSARGKEDVNKTLPNLQVVNHQQGPHHRHILKLLPSMEATGGEKSSTPIKGPKRGHPRQNLHKHFDINEHLPWMIVLFLLLVLVVIVVCSIRKSSRTLKKGPRQDPSAIVEKAGLKKSMTPTQNREKWIYYCNGHGIDILKLVAAQVGSQWKDIYQFLCNASEREVAAFSNGYTADHERAYAALQHWTIRGPEASLAQLISALRQHRRNDVVEKIRGLMEDTTQLETDKLALPMSPSPLSPSPIPSPNAKLENSALLTVEPSPQDKNKGFFVDESEPLLRCDSTSSGSSALSRNGSFITKEKKDTVLRQVRLDPCDLQPIFDDMLHFLNPEELRVIEEIPQAEDKLDRLFEIIGVKSQEASQTLLDSVYSHLPDLL
- percentage of EdU-negative (MCF7; [3]): 27.8 ± 0.67%
- percentage of EdU-negative (MCF7; protein concentration 0.225 µM): 25.7 ± 4.1%
- percentage of EdU-negative (hTERT-HMEC; [3]): 4.84 ± 0.51%
- percentage of EdU-negative (hTERT-HMEC; protein concentration 0.225 µM): 5.355 ± 0.035%

Sequence: MGTTARAALVLTYLAVASAASEGGFTATGQRQLRPEHFQEVGYAAPPSPPLSRSLPMDHPDSSQHGPPFEGQSQVQPPPSQEATPLQQEKLLPAQLPAEKEVGPPLPQEAVPLQKELPSLQHPNEQKEGTPAPFGDQSHPEPESWNAAQHCQQDRSQGGWGHRLDGFPPGRPSPDNLNQICLPNRQHVVYGPWNLPQSSYSHLTRQGETLNFLEIGYSRCCHCRSHTNRLECAKLVWEEAMSRFCEAEFSVKTRPHWCCTRQGEARFSCFQEEAPQPHYQLRACPSHQPDISSGLELPFPPGVPTLDNIKNICHLRRFRSVPRNLPATDPLQRELLALIQLEREFQRCCRQGNNHTCTWKAWEDTLDKYCDREYAVKTHHHLCCRHPPSPTRDECFARRAPYPNYDRDILTIDIGRVTPNLMGHLCGNQRVLTKHKHIPGLIHNMTARCCDLPFPEQACCAEEEKLTFINDLCGPRRNIWRDPALCCYLSPGDEQVNCFNINYLRNVALVSGDTENAKGQGEQGSTGGTNISSTSEPKEE
- percentage of EdU-negative (MCF7; [9]): 23.4 ± 2%
- percentage of EdU-negative (MCF7; [10]): 25.6 ± 1.1%
- percentage of EdU-negative (MCF7; [11]): 25.7 ± 1.2%
- percentage of EdU-negative (MCF7; [12]): 26 ± 1.7%
- percentage of EdU-negative (hTERT-HMEC; [9]): 5.01 ± 0.46%
- percentage of EdU-negative (hTERT-HMEC; [10]): 4.52 ± 0.66%
- percentage of EdU-negative (hTERT-HMEC; [11]): 5.74 ± 0.78%
- percentage of EdU-negative (hTERT-HMEC; [12]): 5.29 ± 0.63%

Sequence: MGVAARPPALRHWFSHSIPLAIFALLLLYLSVRSLGARSGCGPRAQPCVPGETAPFQVRQESGTLEAPERKQPPCLGPRGMLGRMMRRFHASLKPEGDVGLSPYLAGWRALVEFLTPLGSVFAFATREAFTKVTDLEARVHGPDAEHYWSLVAMAAWERRAGLLEQPGAAPRDPTRSSGSRTLLLLHRALRWSQLCLHRVATGALGGPDAGVQCSDAYRAALGPHHPWLVRQTARLAFLAFPGRRRLLELACPGATEAEARAALVRAAGTLEDVYNRTQSLLAERGLLQLA [A6NH11]
- percentage of EdU-negative (MCF7; [13]): 23.4 ± 0.51%
- percentage of EdU-negative (MCF7; [14]): 25.5 ± 2.7%
- percentage of EdU-negative (hTERT-HMEC; [13]): 5.02 ± 1.8%
- percentage of EdU-negative (hTERT-HMEC; [14]): 5.53 ± 0.54%

Sequence: MGVCGYLFLPWKCLVVVSLRLLFLVPTGVPVRSGDATFPKAMDNVTVRQGESATLRCTIDDRVTRVAWLNRSTILYAGNDKWSIDPRVIILVNTPTQYSIMIQNVDVYDEGPYTCSVQTDNHPKTSRVHLIVQVPPQIMNISSDITVNEGSSVTLLCLAIGRPEPTVTWRHLSVKEGQGFVSEDEYLEISDIKRDQSGEYECSALNDVAAPDVRKVKITVNYPPYISKAKNTGVSVGQKGILSCEASAVPMAEFQWFKEETRLATGLDGMRIENKGRMSTLTFFNVSEKDYGNYTCVATNKLGNTNASITLYGPGAVIDGVNSASRALACLWLSGTLLAHFFIKF
- percentage of EdU-negative (MCF7; [3]): 23.9 ± 0.79%
- percentage of EdU-negative (MCF7; protein concentration 0.225 µM): 23.8 ± 1.2%
- percentage of EdU-negative (hTERT-HMEC; [3]): 4.81 ± 0.74%
- percentage of EdU-negative (hTERT-HMEC; protein concentration 0.225 µM): 5.39 ± 1.6%

Sequence: MGVCGYLFLPWKCLVVVSLRLLFLVPTGVPVRSGDATFPKAMDNVTVRQGESATLRCTIDNRVTRVAWLNRSTILYAGNDKWCLDPRVVLLSNTQTQYSIEIQNVDVYDEGPYTCSVQTDNHPKTSRVHLIVQVSPKIVEISSDISINEGNNISLTCIATGRPEPTVTWRHISPKAVGFVSEDEYLEIQGITREQSGDYECSASNDVAAPVVRRVKVTVNYPPYISEAKGTGVPVGQKGTLQCEASAVPSAEFQWYKDDKRLIEGKKGVKVENRPFLSKLIFFNVSEHDYGNYTCVASNKLGHTNASIMLFGPGAVSEVSNGTSRRAGCVWLLPLLVLHLLLKF [Q9P121]
- percentage of EdU-negative (MCF7; [15]): 24.73 ± 0.092%
- percentage of EdU-negative (MCF7; [16]): 28.9 ± 1.9%
- percentage of EdU-negative (hTERT-HMEC; [15]): 5.01 ± 0.68%
- percentage of EdU-negative (hTERT-HMEC; [16]): 6.84 ± 0.93%
